# Columns and labels:
# [1] = guinea pig, in vivo
# [2] = Kinetics of drug absorption from hGH tip-coated microprotrusion array systems, plasma hGH by ELISA; type: in vivo, hairless guinea pigs
# Method: However, on the microprotrusion itself, the coating was found unevenly distributed.
# Systems remained on the skin for 5 seconds (n=3) or 5 minutes (n=5). A group of animals (n=5) received a subcutaneous injection of 10 μg hGH. Blood samples were collected at time intervals for plasma hGH determination by ELISA. The hGH dose delivered was extrapolated based on an area under the curve (AUC) calculation compared to IV administration of hGH. […] On average, 5 μg of hGH was delivered in each animal, which accounts for approximately 50% of the coated dose.
# [3] = Ovalbumin absorption into the skin from dip-coated microprotrusion devices, skin biopsy fluorimetry; type: in vivo, hairless guinea pigs; details: dip-coated device, 8 mm skin biopsy
# Method: The feasibility of coating the microprotrusion devices with ovalbumin was evaluated. A coating solution comprising 200 mg/ml of fluorescein-tagged ovalbumin in water was prepared.
# Microprotrusion application was performed using a spring loaded applicator which impacted the system against the animal's skin. […] The average total amount of ovalbumin delivered into the skin (Mavg) during these time intervals was determined by taking an 8 mm skin biopsy at the application site. The skin biopsy sample was then dissolved in hyamine hydroxide (diisobutylcresoxyethoxyethyl) dimethyl) benzylammonium hydroxide, 1 M in ethanol, sold by J. T. Baker (NJ, USA) and the amount of ovalbumin present was determined by fluorimetry. […] Although ovalbumin is not a pharmacological agent used in therapeutics, it is a good model for large potent pharmacologically active agents such as follicle stimulating hormone and erythropoietin.
# [4] = Ovalbumin delivery from tip-coated microprotrusion array systems, skin biopsy fluorimetry; type: in vivo, euthanized hairless guinea pigs
# Method: The coating was limited to the first 150 μm of the microprojection.
# The applied systems comprised a coated microprotrusion array, adhered to the center of a LDPE backing with an adhesive (7 cm^2 disc). […] At the end of the wearing time, the system was removed and the skin wiped clean of any residual drug. The total amount of ovalbumin delivered in the skin during these time intervals was determined by dissolving a 8 mm skin biopsy in hyamine hydroxide (10% in methanol). Quantitation was performed by fluorimetry. […] Close to 100% of the dose had been delivered after 1 hour application time (solid bar).
# [5] = Ovalbumin delivery from microprotrusion systems coated with 200, 50 and 10 mg/ml solutions; type: in vivo, hairless guinea pigs; details: coating solutions 200, 50 and 10 mg/ml, device removed immediately after application
# Method: An experiment similar to that described in Example 1 was performed in the HGPs using the identical microprotrusion systems which were coated with aqueous ovalbumin solutions having ovalbumin concentrations of 200, 50, and 10 mg/ml ovalbumin. In all groups the microprotrusion device was removed immediately after application. Application and analysis were performed identically to that described in Example 1.
molecule,measurement,setting,value
NC(=O)CC[C@@H]1NC(=O)[C@H](Cc2ccccc2)NC(=O)[C@H](Cc2ccc(O)cc2)NC(=O)CCSSC[C@@H](C(=O)N2CCC[C@H]2C(=O)N[C@H](CCCN=C(N)N)C(=O)NCC(N)=O)NC(=O)[C@H](CC(N)=O)NC1=O [desmopressin],Additional drug absorbed after the first two hours,[1],no additional amount of drug was absorbed
same,amount of desmopressin delivered versus Group B,[1],did not increase significantly
same,average delivery of desmopressin,[1],about 5 μg
same,average desmopressin delivered,[1],18 µg
"hGH: Human growth hormone, model for cytokines, particularly interferon",bioavailability,[2]; subcutaneous administration of 10 μg hGH,65%
same,"hGH delivery, 5 seconds versus 5 minutes wearing times",[2]; tip-coated array,the same
same,hGH delivered as share of the coated dose,"[2]; tip-coated array, 5 seconds or 5 minutes wear",approximately 50%
same,"hGH delivered in each animal, on average","[2]; tip-coated array, 5 seconds or 5 minutes wear, extrapolated from AUC compared to IV",5 µg
"ovalbumin: a 45,000 Dalton polypeptide containing an oligosaccharide side chain; model for large pharmacological agents; fluorescein/FITC-tagged in delivery studies (protein, UniProt P01012 2-386, looked up, fluorescein/FITC label, a 45,000 Dalton polypeptide containing an oligosaccharide side chain; model for large pharmacological agents; fluorescein/FITC-tagged in delivery studies) Ovalbumin: GSIGAASMEFCFDVFKELKVHHANENIFYCPIAIMSALAMVYLGAKDSTRTQINKVVRFDKLPGFGDSIEAQCGTSVNVHSSLRDILNQITKPNDVYSFSLASRLYAEERYPILPEYLQCVKELYRGGLEPINFQTAADQARELINSWVESQTNGIIRNVLQPSSVDSQTAMVLVNAIVFKGLWEKAFKDEDTQAMPFRVTEQESKPVQMMYQIGLFRVASMASEKMKILELPFASGTMSMLVLLPDEVSGLEQLESIINFEKLTEWTSSNVMEERKIKVYLPRMKMEEKYNLTSVLMAMGITDVFSSSANLSGISSAESLKISQAVHAAHAEINEAGREVVGSAEAGVDAASVSEEFRADHPFLFCIKHIATNAVLFFGRCVSP",ovalbumin delivered intracutaneously,[3]; 5 second piercing,about 25 μg
same,ovalbumin delivered intracutaneously,[3]; 1 hour application period,up to 80 μg
same,ovalbumin dose delivered,[4]; 5 seconds wearing time,more than 80%
same,ovalbumin dose delivered,[4]; 1 hour application time,~100%
same,delivery of ovalbumin as a function of amount coated,[5],could be controlled by controlling the amounts coated on the microprotrusions
